This note sets out measurements from patent US20240424127A1 (BRIGHT PEAK THERAPEUTICS, published 2024).

Bridges are numbered along the chain shown (N, C = ends). [ ]: non-standard residue; d: D form. glutaryl‑PEG9‑azide = glutaryl-PEG9-azide group on the N-terminal amine; hSer = N[C@@H](CCO)C(=O)O; Nle = CCCC[C@H](N)C(=O)O

Experiment [1] has as its target T1, Recombinant Human IL-7R alpha/CD127 Fc Avi-tag Protein, CF (R&D Systems #AVI10317-050) (human, UniProt P16871 21-239).
T1 construct: Bought construct; It was loaded on streptavidin (SAX/SAX2) biosensors; not shown: Fc and Avi-tag of a bought protein
T1 sequence (looked up): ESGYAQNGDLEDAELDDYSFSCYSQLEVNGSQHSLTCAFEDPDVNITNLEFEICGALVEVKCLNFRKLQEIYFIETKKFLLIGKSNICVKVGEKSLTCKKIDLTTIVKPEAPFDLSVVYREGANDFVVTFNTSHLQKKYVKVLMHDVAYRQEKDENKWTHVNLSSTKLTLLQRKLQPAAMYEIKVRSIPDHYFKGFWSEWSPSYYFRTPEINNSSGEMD
In words: BLI (Octet R8); CD127-Fc-Avi loaded on SAX2 sensor, IL-7 polypeptide as analyte. (BLI is a label-free optical method that tracks binding on a fibre tip over time.)

Experiment [2] has as its target T2, IL-7 receptor (IL-7Rα/γc heterodimer) on primary human T cells (human, UniProt P16871 21-459; P31785 23-369).
T2 sequence (looked up) 1: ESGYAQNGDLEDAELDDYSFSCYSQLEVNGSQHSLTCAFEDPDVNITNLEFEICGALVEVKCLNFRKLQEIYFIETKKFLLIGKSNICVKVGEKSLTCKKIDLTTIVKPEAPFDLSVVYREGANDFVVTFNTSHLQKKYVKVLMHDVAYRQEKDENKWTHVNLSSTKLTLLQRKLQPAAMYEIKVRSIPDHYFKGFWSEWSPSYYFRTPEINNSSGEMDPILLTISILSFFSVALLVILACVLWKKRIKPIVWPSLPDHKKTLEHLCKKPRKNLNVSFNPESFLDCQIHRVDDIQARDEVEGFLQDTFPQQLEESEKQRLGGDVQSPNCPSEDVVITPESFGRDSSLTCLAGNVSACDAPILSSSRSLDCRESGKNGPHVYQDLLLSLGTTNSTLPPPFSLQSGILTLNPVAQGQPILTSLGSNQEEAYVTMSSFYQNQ
T2 sequence (looked up) 2: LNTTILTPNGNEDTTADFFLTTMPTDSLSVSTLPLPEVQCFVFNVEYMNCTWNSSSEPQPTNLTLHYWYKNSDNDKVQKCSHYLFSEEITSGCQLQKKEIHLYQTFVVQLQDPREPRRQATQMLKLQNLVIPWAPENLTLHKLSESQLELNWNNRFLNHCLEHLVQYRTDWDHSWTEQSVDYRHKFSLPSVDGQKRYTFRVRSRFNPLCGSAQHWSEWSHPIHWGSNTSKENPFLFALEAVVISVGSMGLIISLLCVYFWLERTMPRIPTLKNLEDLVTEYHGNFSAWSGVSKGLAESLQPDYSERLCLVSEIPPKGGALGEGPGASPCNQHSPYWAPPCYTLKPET
In words: cell-based or functional assay.

Experiment [3] deals with T1, Recombinant Human IL-7R alpha/CD127 Fc …. The experiment can be described thus: BLI (Octet R8); CD127-Fc-Avi loaded on SAX2 sensor, IL-7 polypeptide as analyte. The source holds these as a separate data set.
Experiment [4] has as its target T3, Biotinylated Recombinant Human PD-1 (CD279)-Fc Chimera (carrier-free), Biolegend #789406 (human, UniProt Q15116 25-167, biotinylated).
T3 construct: Bought PD-1-Fc; also called h-PD1 Fc; not shown: Fc part of a bought chimera
The experiment can be described thus: ELISA: antibody coated on the plate, serial dilution of biotinylated human PD-1-Fc, streptavidin-HRP, OD 450 nm (x axis printed as 'Molecule (nM)'). On the technique in general: In an ELISA, binding on a coated surface is turned into a signal by an enzyme label.

For experiment [5], the target named is T3, Biotinylated Recombinant Human PD-1 …. The experiment can be described thus: Direct huPD1 ELISA: antibody coated on the plate, serial dilution of biotinylated human PD-1-Fc (x axis 'Biotin PD1 (nM)'), signal at 450 nm.
Procedure: (§1) Each of these variant conjugates and unmodified antibodies are assayed by ELISA for their ability to bind to human PD-1 according to the following protocol.
(§2) Streptavidin-HRP is Sigma #RABHRP3. TMB solution is 3,3′,5,5′-Tetramethylbenzidine (Sigma T0440). Stop solution is Sigma #CL07STOP solution (0.5M H₂SO₄). Buffers are: Coating buffer is PBS. Wash buffer is PBS-0.02% Tween20. Blocking buffer is PBS-0.02% Tween20 1% BSA. Protein diluent is PBS-0.02% Tween20 0.1% BSA. STOP solution is 0.5M H₂SO₄. Procedure: Immunocytokines and parental antibody are coated overnight at 4° C. The ELISA plates are washed 4 times with 100 μl PBS-0.02% Tween20. and blocked with PBS-1% BSA. A serial dilution of h-PD1 Fc is prepared and plates are incubated for two hours at 37° C., with shaking (600 rpm). ELISA plates are washed and incubated with Streptavidin-HRP 30 min at RT, with shaking (600 rpm). ELISA plates are washed and incubated with ready-to-use TMB solution. Reaction is stopped and plates are read by OD450 on an Enspire plate reader.
For experiment [6] the target is unchanged. The experiment can be described thus: ELISA: immunocytokine coated on the plate, serial dilution of biotinylated human PD-1-Fc, streptavidin-HRP, OD 450 nm (x axis printed as 'Molecule (nM)').
Procedure: as §1, §2
Experiment [7] shares this target. In words: Direct huPD1 ELISA: immunocytokine coated on the plate, serial dilution of biotinylated human PD-1-Fc (x axis 'Biotin PD1 (nM)'), signal at 450 nm.
Procedure: as §1, §2
Experiment [8] concerns the target T1, Recombinant Human IL-7R alpha/CD127 Fc …. The experiment can be described thus: BLI (Octet R8); CD127-Fc-Avi loaded on SAX2 sensor, immunocytokine as analyte.
The target is the same in experiment [9]. The experiment is described as above. The source holds these as a separate data set.

T3 sequence (Q15116 25-167, change not shown): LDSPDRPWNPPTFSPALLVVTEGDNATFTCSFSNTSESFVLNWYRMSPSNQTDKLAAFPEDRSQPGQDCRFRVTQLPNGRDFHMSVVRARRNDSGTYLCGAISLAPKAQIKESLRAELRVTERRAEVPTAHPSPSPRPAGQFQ

B1: CMP-110, synthetic IL-7 G85N of SEQ ID NO: 7 with glutaryl-PEG9-azide at the N-terminus (ligand)
chain: {glutaryl‑PEG9‑azide}-DCDIEGKDGKQYESVL[Nle]VSIDQLLDS[Nle]KEIGSNCL[hSer]NEFNFFKRHICDANKEG[Nle]FLFRAARKLRQFLK[Nle]NSTGDF[hSer]LHLLKVSENTTILLNCTGQVKGRKPAALGEAQPTKSL[hSer]ENKSLKEQKKLNDLCFLKRLLQEIKTCWNKIL[Nle]GTKEH-NH2
modifications: disulfide 34-129, 47-141, 2-92
notes: The suffix is not explained; also called CMP-110-001
As to B1, in experiment [1], the off-rate (koff) (usually a measure of how fast the partners let go of each other) is 0.0225 s⁻¹ and the kon (usually the rate constant with which the complex forms) turned out to be 2.51e+06 M⁻¹ s⁻¹. Also, in experiment [2], the “EC50 pSTAT5, CD4 Memory” value amounted to 30 pM; the “EC50 pSTAT5, CD4 Naive” value was 30 pM; the “EC50 pSTAT5, CD4 Treg” value was 67 nM; the “EC50 pSTAT5, CD8 Memory” value is 80 pM. For the same molecule, in [2], the “EC50 pSTAT5, CD8 Naive” value was 50 pM. For the same molecule, in experiment [3], the Kd (commonly the free concentration of one partner at which half of the binding sites on the other are occupied at equilibrium, for simple one-to-one binding) worked out at 9.47 nM; the koff turned out to be 0.0269 s⁻¹; the kon came out at 2.84e+06 M⁻¹ s⁻¹.

B2: LZM-009 (antibody, V domains shown)
VH: QVQLVQSGAEVKKPGASVKVSCKASGYTFTSYYMYWVRQAPGQGLEWMGGVNPSNGGTNFNEKFKSRVTITADKSTSTAYMELSSLRSEDTAVYYCARRDYRYDMGFDYWGQGTTVTVSS
VL: EIVLTQSPATLSLSPGERATISCRASKGVSTSGYSYLHWYQQKPGQAPRLLIYLASYLESGVPARFSGSGSGTDFTLTISSLEPEDFATYYCQHSRELPLTFGTGTKVEIK
notes: It is a whole antibody with an Fc region (conjugated at K248)
Take B2: the EC50 in experiment [4] and in experiment [5] was 0.035 nM in each case.

B3: CMP-041, LZM-009 conjugated to synthetic IL-7 (WT) CMP-108, DAR 1, at K248 (other)
VH: QVQLVQSGAEVKKPGASVKVSCKASGYTFTSYYMYWVRQAPGQGLEWMGGVNPSNGGTNFNEKFKSRVTITADKSTSTAYMELSSLRSEDTAVYYCARRDYRYDMGFDYWGQGTTVTVSS
VL: EIVLTQSPATLSLSPGERATISCRASKGVSTSGYSYLHWYQQKPGQAPRLLIYLASYLESGVPARFSGSGSGTDFTLTISSLEPEDFATYYCQHSRELPLTFGTGTKVEIK
chain: DCDIEGKDGKQYESVLXVSIDQLLDSXKEIGSNCLXNEFNFFKRHICDANKEGXFLFRAARKLRQFLKXNSTGDFXLHLLKVSEGTTILLNCTGQVKGRKPAALGEAQPTKSLXENKSLKEQKKLNDLCFLKRLLQEIKTCWNKILXGTKEH
modifications: not fully specified; norleucine (Nle) at 17, 27, 54, 69, 147; homoserine (Hse) at 36, 76, 114; N-terminal glutaryl-PEG9-azide reacted with the DBCO linker on the antibody; K248 (EU numbering) of the Fc region carries the linker to IL-7 (DAR 1)
notes: Immunocytokine (chemical conjugate, not a fusion)
With B3, the EC50 in [6] and in [7] was 0.0348 nM each time. The koff in experiment [8] amounted to 0.00979 s⁻¹. Further, the kon in [8] is 2.95e+06 M⁻¹ s⁻¹.

B4: CMP-116, LZM-009 conjugated to synthetic IL-7 (V15W) CMP-107, DAR 1, at K248 (other)
VH: QVQLVQSGAEVKKPGASVKVSCKASGYTFTSYYMYWVRQAPGQGLEWMGGVNPSNGGTNFNEKFKSRVTITADKSTSTAYMELSSLRSEDTAVYYCARRDYRYDMGFDYWGQGTTVTVSS
VL: EIVLTQSPATLSLSPGERATISCRASKGVSTSGYSYLHWYQQKPGQAPRLLIYLASYLESGVPARFSGSGSGTDFTLTISSLEPEDFATYYCQHSRELPLTFGTGTKVEIK
chain: DCDIEGKDGKQYESWLXVSIDQLLDSXKEIGSNCLXNEFNFFKRHICDANKEGXFLFRAARKLRQFLKXNSTGDFXLHLLKVSEGTTILLNCTGQVKGRKPAALGEAQPTKSLXENKSLKEQKKLNDLCFLKRLLQEIKTCWNKILXGTKEH
modifications: not fully specified; norleucine (Nle) at 17, 27, 54, 69, 147; homoserine (Hse) at 36, 76, 114; N-terminal glutaryl-PEG9-azide reacted with the DBCO linker on the antibody; K248 (EU numbering) of the Fc region carries the linker to IL-7 (DAR 1)
notes: Immunocytokine (chemical conjugate)
Take B4: the EC50 (as a rule, the midpoint of the concentration-response curve) in experiment [7] came to 0.0341 nM. In experiment [9], the koff came out at 0.0473 s⁻¹ and the kon was 2.9e+06 M⁻¹ s⁻¹.
